Laboratory results published in the nanobody polyreactivity screen of Harvey et al. (2022).

Assay: yeast display, Sf9 membrane polyspecificity reagent, FACS + sequencing; frameworks hold sequencing errors
In short: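 Polyreactivity labels are assigned by the sorting gate from which each nanobody was recovered. The gates were low and high (top ~1%), set on anti-HA fluorescence for expression and streptavidin fluorescence for reagent binding. Before sorting, galactose-induced (36–48 hours) yeast display cells were stained for 1 hour at 4 °C with 10% biotinylated, detergent-solubilized Sf9 membrane reagent.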

Sequence	polyreactivity (PSR sort gate)
QVQLVESGGGLVQAGGSLRLSCAASGIIFRNYAMGLYRQAPGKEREFVAAISGSGTSTYYADSVKGRFTISRDNAKNTVYLQMNSLKPEDTAVYYCAAEKYSYPYDYEYWGQGTQVTVSS	high polyreactivity
QVQLVESGGGLVQAGGSLRLSCAASGRIFLVYGMGWSRQAPGKERELVASITDRGGSTYYADSVKGRFTISRDNAKNTVYLQMYSLKPEDTAVYYCAADGAFYASTEMDYWGQGTQVTVSS	low polyreactivity
QVQLVESGGGLVQAGGSLRLSCAASGSIFVTNPMGWYRQAPGKERELVAAIRGGGGSTYYADSVKGRFTISRDNAKNTVYLQMNSLKPEDTAVYYCNADRRGYLQSEMDYWGQGTQVTVSS	low polyreactivity
QVQLVESGVGIVQAGGSLRLSCAASGSTFVSNAMGWYIPAPGKERELVAAISWTGGSTYYADSVKGRFTISRDNAKTTVYLQMNSLKPEDTAVYYCAAQLTDTYYQYDYWGQVTQVTVSS	low polyreactivity
QVQLVESGGGLVQAGGSLRLSCPASGSIFPTYAMGRYRQAPGKERELVAAITTSGGNTFYADSVKGRFTISRDNAKNTVYLQMNRLKPEDTAVYYCAAYYSPYTVEYDYWGQGTLVTVSS	low polyreactivity
QVQLVESGGGLVQAGGSLRLSCAASGRTFLDNAMGWYRQAPGKERELVAAISYSGGSTYYADSVKGRFTISRDNAKNTVYLQMNSLKPEDTAVYYCAADPRQYDYYLLAYDYWGQGTQVTVSS	low polyreactivity
QVQLVESGGGLVQAGGSLRLSCAASGYTFLYYAMGWYRQAPGKEREFVAAISRSGGSTYYADSVKGRFTISRDNAKNTVYLQMNSLKPEDTAVYYCAARFRYQHQRGDYWGQGTQVTVSS	high polyreactivity
HVQLVESGGGLVQAGGSLRLSCAASGSTFAAYAMGWYRQAPGKERELVAAITKRGGTTYYADSVKGRVTISRDHAKNSVYLQMNSLKPEDTAVYYCAKTRYYSALLHYDYDTWGQGTQVTVST	high polyreactivity
QVQLVESGGGLVQAGGSLRLSCADSGNIFGTYAMGWSRQAPGKERELVANISNDDRTNYADSVKGRFTISRDNAKNTVYLQMNSLKPEDTAVYYCAVEYPSIAYRKSSKTFDYWGQGTQVTVSS	low polyreactivity
QVQLVESGGGLVQAGGSLRLSCAASGYTLSVNAMGWYRQAPGKERELVATIDFGGGSTYYADSVKGRFTISRDNAKNTVYLQMNSLKPEDTAVYYCNTEWTSLSKSSLGGRYDHWGQGTQVTVSS	low polyreactivity
QVQLVESGGGLVQAGGSLRLSCAASGRIFKSNAMGWYRQAPGKERELVASITASGGRTYYADSVKGRFTISRDNAKNTVYLQMNSLKPEDTAVYYCAAGRPFSKYGYWGQGTQVTVSS	high polyreactivity
QVQLVESGGGLVQAGGSLRLSCAASGIIFLDNVMRWYRQAPGKERELVAAISSSGGSTYYADSVKGRFTISRDNAKNTVYLQMNSLKPEDTAVYYCAAYFRRGFYYWGQGTQVTVSS	high polyreactivity
QVQLVESGGGLVQAGGSLRLSCAASGRIFGYYAMGWYRQAPGKERELVAAIYSGGSTYYADSVKGRFTISRDNAKNTVYLQMNSLKPEDTAVYYCAAYYYGWYTPSQSPKYDYWGQGTQVTVSS	high polyreactivity
QVQLVESGAGLVQAGGSLRLSCAASGSTFGSYTMGWYRQAPGKERELVAAINWSGGNTYYADSVKGRFTISRDTAKNTVYLQMNSLKPEDTAVYYCAAAFYIYGVEGDYWGQGTQVTVSS	low polyreactivity
QVQLVESGGGLVQAGGSLRLSCAASGTFGYMGWYRQAPGKERELVAAITSRGGGNTYYADSVKGRFTISRDNAKNTVYLQMNSLKPEDTAVYYCAASRVGYHGQTYDYWGQGTQVTVSS	high polyreactivity
QVQLVESGGGLVQAGGSLRLSCAASGFTAVGNAMGWYRPAPGKERELVASITNGGSTNYADSVKGRFTISRDNAKNTVYIQMNSLKPEDTAVYYCATDTYFDYTGALSHSGYYYWGQGTQVTVSS	low polyreactivity
QVQLVESGGGLVQAGGSLRLSCAASGFIFAYYAMGWYRQAPGKERELVAAISSSGGRTYYADSVKGRFTISRDNAKNTVYLQMNSLQPEDTAVYYCAATLSYYVGVRYDYWGQGTQVTVSS	high polyreactivity
QVQLVESGGGLVQAGGSLRLSCAASGSIFDGNGMGWSRQAPGKERELVASISGDGSTNYADSVKGRFTISRDNAKNTVYLQMNSLKPEDTAVYYCATDDPLSQINEQGMDYWGQGTQVTVSS	low polyreactivity
QVQLEESGGGLVQAGGSLRLSCAASGSTFTEYVMGWYRHATGKERELVAAIRSNGGSTYYADSVKGRFTISRDNAKNTVYLQMHSLNPEDTAVYYCNRVYSRRTYNSPLYDDWGQGTQVTVSS	high polyreactivity
QVQLVESGGGLVQAGGSLRLSWAASGITFRKNAMGWYRQAPGKERQLVATITRRGGSTFYADSVKGRFTISRDNANNTVYLQFKSLKPVDSAVYYFAADYATRDGDYESWGQGTQVTVSS	high polyreactivity
QVQLVESGGGLVQAGGSLRLSCAASGRTFWVNAMGWYRQAPGKERELVAAITSSVSSTYYADSVKGRFTISRDNAKNTVYLQMNSLKPEDTAVYYCAAGVGRGMYYWGQGTQVTVSS	low polyreactivity
QVQLVESGGGLVQAGGSLRLSCAASGFTFRRYAMGWYRLAPGKERELVAAISQSGGRTYYADSVKGRFTISRDNAKNTVYLQMNSLKPEDTAVYNFAKDAAGGRHYDYWGQGTQVTVSS	high polyreactivity

Sequence	polyreactivity (PSR sort gate)
QVQLVESGGGLVQAGGSLRLSCAASGSIFVGNAMGWYRQAPGKERELVAAISSGGSTYYADSVKGRFTISRDNAKNTVYLQMNSLKPEDTAVYYCAAYYVRRYSSRPKDDYWGQGTQVTVSS	low polyreactivity
QVQLVESGGGLVQAGGSLRLSCAASGSTFDRYAMGWYRQAPGKERELVAAISCSGGRTYYADSVKGRFTISRDNEKNTVYLQMNSLKPEDTAVYYCATVSRSSLAYIKYDYWGQGTQVTVSA	high polyreactivity
QVQLVESGGGLVQAGGSLRLSCAASGSTFSRYAMGWYRQAPGKERELVAAISSRGGSTYYADSVKGRFTISRDNAKNTVYLQMNSLKPEDTAVYYCNALTSYQNHVYPYDYWGQGTEVTVSS	high polyreactivity
QVQLVESGGGLVQAGGSLRLSCAASGIIIYYNTMGWYRQAPGKEREFVDAISNSGGRTYYADSVKGRFTISRDNAKNTVYLQMNSLKPEDTADYYCAATYRQYSRSPWYYYCGQGTQVTVSS	high polyreactivity
QVQLVESGGGLVQAGGSLRLSCAASGSTFTPNVMGWSRQAPGKERELVAAINSSGGSTFYADSVKGRFTISRDNAKNTVYLQMNSLKPEDTAVYYCAASWHTPTVYDEYYYWGQGTQVTVSS	low polyreactivity
QGQLVESGGGLVQAGGSLRLSCAASGSTFAYYAMGWYIPAPGKERELVAAITSRGGSTYYADSVKGRFTISRDNAKNTVYLQMNSLKPEDTAVYYCAAVTRNQGSYRYYYWGQGTQVTVSS	high polyreactivity
QGQLVESCGGLVQAGGSLRLSCAASGRTFYYYAMGWYRQAPRKERELVAAMTSGGRTNSADSVKGRFTSSRDKATNTDSLQMNSLKPEDTAVYYCAKPPYSQYEFDYWGQGTQVTVSS	high polyreactivity
QVQLVESGGGLVQAGGSLRLICAASGSTFGYYAMGWYRKAPGKERELVAVITYSGGSTYYADSVKGRFTISRDNAKNTVNLQMNSLKPEDTSVYYCSAVIGVWYYYTYDYWGQGTQVTVSS	low polyreactivity
QDQLVDSGGGLVQAGGSLRLSCASSGGTFSYYTMGWYRQAPGKERELVARISKNGGRTYYADSVKGRFTISRDNAKNTVYLQLNSLKPEDTAVYYCNAAGRTYDFSGGRTMEYWGQGTQVTVSS	high polyreactivity
QVQLVESGGGLVQAGGSLRLSCAASGFIFYLYTMGWYRQAPGKERELVAAITRSGGTYYADSVKGRFTISRDNAKNTVYLQMNSLKPEDTAVYYCNADDYEGYYYWGQGTQVTVSS	low polyreactivity
QVQLVESGGGLVQAGGSLRLSCAASGSIFWQNTMGWYRQAPGKERELVAAISWSGGRTYYADSVKGRFTISRDNAKNTVSLPMNSLKPEDTAVYYCNKLLSQRRYHSEMDYWGQGTQVTVSS	high polyreactivity
QVQLVESGGALVQAGGSLRLSCAASGSTYDSYSMGWYRKAPGKERELVAAITRRGTRTYYADSVKGRFTISRDNAKNTVYLQMNSLKREDTAVYYCAADRGYRLQSYGYWGQGTQVTVSS	high polyreactivity
QVQLVESGGGLVQAGGSLRLSCAASGSIFNYYAMGWYRQAPGKERELVAAISWNGGRTYYADSVKGRFTISRDNAKNTVYLQMNSLKPEDTAVYYCNAYPAGYVAHTYDYWGQGTQVTVSS	high polyreactivity
QVQLVESGGGLVQAGGSLRLSCAASGRTFTPYAMGWYRQAPGKERELVAAIDTSGGSTYADSVKGRFTISRDNAKNTVYLQMNSLKPEDTAVYYCAATRHSRVRGGDYWGQGTQVTVSS	low polyreactivity
QVQLVESGGGLVQAGGSLRLSCAASGSIFLYNAMGWYRQAPGKERELVASISSGGITDYADSVKGRFTISRDNAKNTVYLQMNSLKPEDTAVYYCAATYSVYLDYAGGGPLYNHWGQGTQVTVSS	low polyreactivity
QVQLVESGGGLVQAGGSLRLSCAASGRTFLYNAMGWYRQAPGKERELVASLTRRGGTTYYADSVKGRFTISRDFAKNNVYFQMISLKPEVTAVYYCNAQPGISYYYYGHWYGYWGQGTQVTVSS	high polyreactivity
QVQLVESGGGLVQAGGSLRLSCPASGNIFLSYAMGWYRQAPGKERELVAGISASGGRTYYADSVKGRFTISRDNAKNTVYLQMNSLKPEDTAVYYCATRGQTRTTTRYYSWGQGTQVTVSS	high polyreactivity
QVQLVESAGGLVQAGGSLRLSCAASGYTFPYYTMGWYRQAPGKERELVATITRRGDSTYYADSVKGRFTISRDNAKNTVYLQMNSLKPEDTAVYYCNTASYGRHQFRKSSKMDYWGQGTQVTVSS	high polyreactivity
QVQLVESGGGLVQAGGSLRLSCAASGRIFWWYAMGWYRQAPGKERELVAVIDDSGGITYYADSVKGRFTISRDKANNTVYLQMNSLNPEDTAVYYCARNVNAQKVLGGFDSWGQGTQVTVSS	low polyreactivity
QVQLVESGGGLVQAGGSLRLSCAASGRTFLIYAMGWYRQAPGKERELVAAITSGGRTKYADSVKGRFTISRDNAKYTVYLQMNSLKPEDTAVYYCAARTGVYRYSRKFDYWGQGTQVTVSS	high polyreactivity
QVQLVESGGGLVQAGGSLRLSCAASGRIFSRYAMGWYRQAPGKERELVAAISWSGGSTYYADSVKGRFTISRDNAKNTVYLQINSLKPEDTAVYYCAAKRQYTEYNYWGQGTQVTVSS	high polyreactivity
